According to article PMC10603095 (Nature Communications, 2023):

What was measured:
[1] = biological target: the molecule itself; assay: crystal structure; DNPH1^E104Q co-crystallised with hmdUMP at 4 °C; space group P2_(1), 1.78 Å; six chains in the asymmetric unit
[2] = biological target: the molecule itself; assay: crystal structure; DNPH1^E55Q co-crystallised with hmdUMP; space group P2_(1)2_(1)2_(1), 1.65 Å; one homodimer in the asymmetric unit

Protein | binding result [1] | binding result [2]
DNPH1^E104Q (human 2'-deoxynucleoside 5'-monophosphate N-glycosidase, crystallisation construct aa 19-162, E104Q) (enzyme, UniProt O43598 19-162, looked up, also called RCL; source: E. coli BL21 Star (DE3), purified (Ni-NTA, TEV cleavage, HisTrap and Resource Q flow-through, size exclusion)) GRPALYFCGSIRGGREDRTLYERIVSRLRRFGTVLTEHVAAAELGARGEEAAGGDRLIHEQDLEWLQQADVVVAEVTQPSLGVGYQLGRAVAFNKRILCLFRPQSGRVLSAMIRGAADGSRFQVWDYEEGEVEALLDRYFEADP | binds | –
DNPH1^E55Q (human 2'-deoxynucleoside 5'-monophosphate N-glycosidase, crystallisation construct aa 19-162, E55Q) (enzyme, UniProt O43598 19-162, looked up, deoxyribose monophosphate (dRP) covalently fused to E104, 2'-deoxynucleoside 5'-monophosphate N-glycosidase (DNPH1, RCL), human, isoform 1, residues 19-162 (crystallisation construct) with the point mutation E55Q; Co-crystallised with hmdUMP; the crystal holds the trapped glycosyl-enzyme intermediate; also called RCL) GRPALYFCGSIRGGREDRTLYERIVSRLRRFGTVLTQHVAAAELGARGEEAAGGDRLIHEQDLEWLQQADVVVAEVTQPSLGVGYELGRAVAFNKRILCLFRPQSGRVLSAMIRGAADGSRFQVWDYEEGEVEALLDRYFEADP | – | binds
